US11447566B2, “Anti-tissue factor antibodies, antibody-drug conjugates, and related methods” (Iconic Therapeutics, Inc., priority 2018, dated 2022)

Assays:
[1] = target: T1, human TF on MDA-MB-231 cells (39A-Alexa488 binding) (Homo sapiens, UniProt P13726); assay: Antibody competition assay with 39A; details: pre-incubation with unlabeled competitor antibody
T1 construct: TF-positive MDA-MB-231 cells (ATCC, Manassas, Va., USA); host or cells: MDA-MB-231
Protocol: (§1) Alexa Fluor antibodies were generated using Alexa Fluor 488 5-sulfo-[…] esters (ThermoFisher Scientific) following manufacturer's protocol. Excess Alexa Fluor dye was removed from the antibody dye conjugate preparations by gel filtration (ThermoFisher Scientific).
(§2) After another 1 hr incubation on ice, cells were washed, stained with a viability dye, and analyzed by flow cytometry. The Alexa488 fluorescence data from viable cells was summarized using median fluorescence intensity.

[2] = target: T2, TF:FVIIa on MDA-MB-231 cells (Homo sapiens, UniProt P13726); assay: FXa conversion assay; format: cell-based; details: concentrations of 25, 50, and 100 nM; FIG. 14A
T2 construct: MDA-MB-231 cells (ATCC, Manassas, Va., USA) were plated; host or cells: MDA-MB-231
Protocol: To evaluate the ability of TF:FVIIa to convert FX into FXa in the presence of human antibodies against TF, 5×10^4 MDA-MB-231 cells (ATCC, Manassas, Va., USA) were plated into tissue culture-treated black 96-well plates (Greiner Bio-One, Monroe, N.C., USA). […] Upon reconstitution of the binary TF:FVIIa complex with a final concentration of 20 nM of FVIIa, cells were incubated for 5 min at 37° C.
Briefly, 5×10^4 MDA-MB-231 cells (ATCC, Manassas, Va., USA) were plated into tissue culture-treated black 96-well plates (Greiner Bio-One, Monroe, N.C., USA) and cultured overnight. […] Upon reconstitution of the binary TF:FVIIa complex with a final concentration of 20 nM of FVIIa, cells were incubated for 5 min at 37° C.

[3] = target: T3, human TF on MDA-MB-231 cells (43D7-Alexa488 binding) (Homo sapiens, UniProt P13726); assay: Antibody competition assay with 43D7; details: pre-incubation with unlabeled competitor antibody
T3 construct: TF-positive MDA-MB-231 cells (ATCC, Manassas, Va., USA); host or cells: MDA-MB-231
Protocol: as §1, §2

[4] = test system: human thrombin generation (relipidated TF, normal pooled plasma); assay: Thrombin generation assay (TGA); format: biochemical; details: 100 nM antibody, Example 18
Protocol: (§3) The TGA assay was performed using the calibrated-automated-thrombogram (CAT) instrument manufactured and distributed by STAGO. The test method design was equivalent to a standard CAT assay measurement, except that the plasma source was NPP in citrate/CTI. […] Relipidated TF was added to a 96-well assay plate, followed by addition of the antibody/NPP mixture. After a 10-min incubation or directly after combining the relipidated TF with antibody/NPP, thrombin generation was initiated by the addition of calcium and the thrombin substrate. The STAGO software was used to report the following parameters: Peak IIa (highest thrombin concentration generated [nM]); Lag Time (time to IIa generation [min]); ETP (endogenous thrombin potential, area under the curve [nM×min]); and ttPeak (time to Peak IIa [min]).
as §3, with “was normal pooled plasma (NPP)” for “was NPP”, “in citrate supplemented with corn trypsin inhibitor (citrate/CTI).” for “in citrate/CTI.”
TGA assay was performed using the calibrated-automated-thrombogram (CAT) instrument manufactured and distributed by STAGO (Diagnostica Stago SAS, Asnieres sur Seine, France). […] The anti-TF antibodies were titrated at 0, 10, 50 and 100 nM and mixed with NPP in citrate/CTI. Relipidated TF was added to a 96-well assay plate, followed by addition of the antibody/NPP mixture. After a 10-min incubation or directly after combining the relipidated TF with antibody/NPP, thrombin generation was initiated by the addition of calcium and the thrombin substrate. The STAGO software was used to report the following parameters: Peak IIa (highest thrombin concentration generated on the thrombin generation curve [nM]); Lag Time (time from assay start to the moment 10 nM of thrombin is formed [min]); ETP (endogenous thrombin potential, area under the curve [nM×min]); and ttPeak (time from assay start to Peak IIa [min]). […] As used herein, the term “thrombin generation assay” (TGA) refers to the TGA used in this example.

[5] = target: T4, human, rat and chimeric human-rat TF constructs expressed on HEK293 cells (Homo sapiens, UniProt P13726, D212E/E215V/N216S/S220F/V221A); assay: Live cell staining assay on chimeric TF constructs (epitope binning); format: cell-based; details: construct h175-189_r (5), human segment replaced by rat segment
T4 construct: expressed in transfected cells; host or cells: HEK293
Protocol: (§4) To establish binding of the anti-human TF antibodies to the various TF constructs, HEK293 cells were transfected with a DNA plasmid that co-expresses the TF construct and a green fluorescent protein marker. […] Two days after transfection, cells were collected from the tissue culture plate, stained with 15 μg/ml of the indicated anti-TF antibody, washed, stained with anti-human IgG-Fc Alexa Fluor 647 polyclonal antibody, washed, and stained with the viability dye 4′,6-Diamidino-2-Phenylindole, Dihydrochloride. Upon acquisition of 80,000 live events on a flow cytometer, live cells marked with the fluorescent marker were analyzed for the degree of staining by the anti-TF antibody. […] As used herein, the term “live cell staining assay” refers to the antibody binding assay used in this example.
(§5) When “Percentage antibody binding to TF construct relative to hTF” in Tables 51 and 52 was less than 50%, the antibody was considered a non-binder (0) in Tables 53 and 54.
(§6) Each antibody was assigned to an epitope bin in Table 55 based on the combination of unbound constructs from Table 53.

[6] = target: T5, human, rat and chimeric human-rat TF constructs expressed on HEK293 cells (Homo sapiens, UniProt P13726, I184G/T186I/W190R/Y188T); assay: as above; format: cell-based; details: construct h152-158_r (4), human segment replaced by rat segment
T5 construct: expressed in transfected cells; host or cells: HEK293
Protocol: as §4, §5, §6

[7] = target: T6, human, rat and chimeric human-rat TF constructs expressed on HEK293 cells (Homo sapiens, UniProt P13726, D76N/F108L/F82T/G75R/K100N/K73R/L104E/Q101W/S79Y/T72D/Y83G); assay: as above; format: cell-based; details: construct h39-77_r (11), human segment replaced by rat segment
T6 construct: expressed in transfected cells; host or cells: HEK293
Protocol: as §4, §5, §6

[8] = target: T7, human, rat and chimeric human-rat TF constructs expressed on HEK293 cells (Homo sapiens, UniProt P13726); assay: as above; format: cell-based; details: construct hTF
T7 construct: expressed in transfected cells; host or cells: HEK293
Protocol: as §4, §5, §6

[9] = target: T8, human, rat and chimeric human-rat TF constructs expressed on HEK293 cells (Homo sapiens, UniProt P13726, I184G/K181N/T186I/W190R/Y188T); assay: as above; format: cell-based; details: construct h146-158_r (5), human segment replaced by rat segment
T8 construct: expressed in transfected cells; host or cells: HEK293
Protocol: as §4, §5, §6

TF-011 [reference compound]
% 39A binding [1]: reduced | inhibition of FX conversion [2]: 57-59% | % 43D7 binding [3]: did not reduce | reduction of the peak IIa concentration ([4]; 10 min antibody pre-incubation): 91% | reduction of the peak IIa concentration ([4]; without antibody pre-incubation): 91% | Antibody binding to TF construct [5]: 1 (between 50% and 150%, the antibody was considered a binder (1)) | Antibody binding to TF construct [6]: 1 (between 50% and 150%, the antibody was considered a binder (1)) | Antibody binding to TF construct [7]: 0 (less than 50%, the antibody was considered a non-binder (0)) | Antibody binding to TF construct ([8]; Table 54): 1 (between 50% and 150%, the antibody was considered a binder (1)) | Antibody binding to TF construct [8]: 1 (between 50% and 150%, the antibody was considered a binder (1)) | Antibody binding to TF construct [9]: 1 (between 50% and 150%, the antibody was considered a binder (1))
